This passage reports stoichiometry N and Kd results from PMC3902906.

Series [1] deals with CsoR^Sl R57A (copper sensitive operon repressor from Streptomyces lividans, R57A mutant) (Streptomyces lividans 1326). Kind of series: SEC; analytical gel filtration column, retention volume of the purified mutant protein alone; data not shown. (In general: In gel filtration, larger molecules generally elute earlier.)
In series [2] the target is CsoR^Sl R132A (copper sensitive operon repressor from Streptomyces lividans, R132A mutant) (Streptomyces lividans 1326). The series is described as above.
For series [3], the target named is CsoR (CsoRSl) wild type (Streptomyces lividans 1326) (UniProt D6EK73). Kind of series: ITC. To be noted: ITC: 10 mM HEPES, 150 mM NaCl, pH 7.5, 25 C, 100 uM DNA into 10 uM CsoR tetramer, EMSA: same buffer, room temperature, 30 min, 6% PAGE in TBE, SEC: same buffer. In general terms: A gel shift assay detects complexes by their altered migration in electrophoresis.

The target in series [4] is CsoR^Sl Q81A (copper sensitive operon repressor from Streptomyces lividans, Q81A mutant) (Streptomyces lividans 1326). Nature of the series: SEC; analytical gel filtration column, retention volume of the purified mutant protein alone; data not shown.
Series [5] deals with CsoR^Sl R129A (copper sensitive operon repressor from Streptomyces lividans, R129A mutant) (Streptomyces lividans 1326). Described as above.
The target in series [6] is CsoR^Sl R54A (copper sensitive operon repressor from Streptomyces lividans, R54A mutant) (Streptomyces lividans 1326). Described as above.

A word on the stoichiometry N: it is the number of molecules, sites or subunits per partner or assembly. Substance “CsoR^Sl R57A (copper sensitive operon repressor from Streptomyces lividans, R57A mutant) (natural protein)” returned a stoichiometry N in series [1] of 4. Take “CsoR^Sl R132A (copper sensitive operon repressor from Streptomyces lividans, R132A mutant) (natural protein)”: the stoichiometry N in series [2] was 4.

One may read the Kd as the concentration at which binding is half-saturated. Consider “CGTTGGGTACCCCCTAGGGGTATACATGG (double strand) [copZA1-EXT]”, for which, in series [3] (apo, reverse titration (protein into DNA), N 0.86), the Kd is 0.112 µM. Substance “CGTTGGGTACCCCCTAGGGGTATATATGG (double strand) [copZA1-GTA down]” yielded a Kd in series [3] of 0.087 µM. Still for that read-out and setting: under “CGGACAAATACCCCTGGTGGGTATATATGG (double strand) [csoR-EXT]” stands 0.074 µM; under “TACCCCCTAGGGGTAT (double strand) [copZA1-CON]”, 0.971 µM.

“CsoR^Sl Q81A (copper sensitive operon repressor from Streptomyces lividans, Q81A mutant) (natural protein)”: the stoichiometry N in series [4] stood at 4. Turning to “ATACCCCTGGTGGGTATAT (double strand) [csoR-CON]”, in series [3], the dissociation constant Kd is 0.12 µM. Turning to “CGTTGGATACCCCCTAGGGGTATACATGG (double strand) [copZA1-GTA up]”, the dissociation constant (Kd) in series [3] was found to be 0.096 µM. In series [5], “CsoR^Sl R129A (copper sensitive operon repressor from Streptomyces lividans, R129A mutant) (natural protein)” displayed a stoichiometry N of 4. Take “GCCTTTATACCCCCTAGGGGTAAGGTGGG (double strand) [copZA2-EXT]”: the Kd in series [3] came out at 0.057 µM. This counts as double-digit nanomolar.

Regarding “CsoR^Sl R54A (copper sensitive operon repressor from Streptomyces lividans, R54A mutant) (natural protein)”, the stoichiometry N in series [6] came out at 4. As to “TATACCCCCTAGGGGTA (double strand) [copZA2-CON]”, in series [3], the Kd was 0.107 µM. That is a sub-micromolar value.
